Results from patent publication US20240368668A1, “SUBSTRATES AND BIOMARKERS OF ADAMTS7” (The Broad Institute, Inc., priority 2021, published 2024).
Square brackets hold non-standard residues; d marks the D form. Ends that are not written are not given here. Met(O) = CS(=O)CC[C@H](N)C(=O)O

Molecular target: T1, mouse ADAMTS7 (Mus musculus, UniProt Q68SA9, E373Q)
T1 construct: Full-length mouse Adamts7 1-1857 (Uniprot Q68SA9, WT or E373Q catalytic mutant); expressed in transfected cells; host or cells: Human Coronary Artery Smooth Muscle Cells (HCA-SMC, Lonza), adenovirus 50 MOI
T1 sequence (Q68SA9 221-1657 E373Q): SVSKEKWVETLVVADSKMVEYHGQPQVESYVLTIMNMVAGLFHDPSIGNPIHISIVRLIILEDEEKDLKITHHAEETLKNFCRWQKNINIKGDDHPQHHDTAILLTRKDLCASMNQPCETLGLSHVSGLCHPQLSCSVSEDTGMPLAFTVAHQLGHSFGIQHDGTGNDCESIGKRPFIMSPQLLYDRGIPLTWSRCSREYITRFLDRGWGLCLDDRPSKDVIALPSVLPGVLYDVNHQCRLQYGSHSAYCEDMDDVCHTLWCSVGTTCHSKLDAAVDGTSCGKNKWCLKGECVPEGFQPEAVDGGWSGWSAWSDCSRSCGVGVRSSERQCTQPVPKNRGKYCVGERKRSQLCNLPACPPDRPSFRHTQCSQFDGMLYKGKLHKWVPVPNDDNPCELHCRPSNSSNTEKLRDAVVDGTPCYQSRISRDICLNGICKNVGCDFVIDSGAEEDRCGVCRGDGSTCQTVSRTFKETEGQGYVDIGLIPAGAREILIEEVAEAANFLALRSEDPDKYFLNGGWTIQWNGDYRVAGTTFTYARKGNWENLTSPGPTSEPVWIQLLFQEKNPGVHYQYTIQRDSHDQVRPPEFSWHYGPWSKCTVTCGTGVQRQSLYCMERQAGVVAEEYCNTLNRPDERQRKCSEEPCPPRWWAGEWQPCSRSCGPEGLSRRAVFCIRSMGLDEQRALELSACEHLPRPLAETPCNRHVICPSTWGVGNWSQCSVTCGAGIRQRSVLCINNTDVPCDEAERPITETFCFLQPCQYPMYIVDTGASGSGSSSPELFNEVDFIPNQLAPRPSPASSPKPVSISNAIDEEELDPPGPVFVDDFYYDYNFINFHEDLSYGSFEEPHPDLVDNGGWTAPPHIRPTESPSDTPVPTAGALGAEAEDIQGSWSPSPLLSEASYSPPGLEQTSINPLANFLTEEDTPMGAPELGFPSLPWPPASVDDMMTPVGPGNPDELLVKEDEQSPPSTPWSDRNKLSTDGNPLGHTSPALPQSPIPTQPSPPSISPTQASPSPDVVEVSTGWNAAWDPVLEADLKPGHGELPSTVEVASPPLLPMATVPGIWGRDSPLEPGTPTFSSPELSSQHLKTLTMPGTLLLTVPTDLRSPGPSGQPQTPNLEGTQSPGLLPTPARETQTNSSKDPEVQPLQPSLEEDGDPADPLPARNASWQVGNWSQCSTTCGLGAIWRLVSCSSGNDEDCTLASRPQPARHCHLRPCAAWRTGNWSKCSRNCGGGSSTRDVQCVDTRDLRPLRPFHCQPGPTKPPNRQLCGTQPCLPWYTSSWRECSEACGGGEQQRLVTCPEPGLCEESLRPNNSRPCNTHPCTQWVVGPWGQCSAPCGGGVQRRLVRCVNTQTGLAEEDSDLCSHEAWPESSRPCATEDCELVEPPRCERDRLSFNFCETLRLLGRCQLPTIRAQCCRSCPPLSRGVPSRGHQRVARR
Assay: TMT10 TAILS N-terminomics, SMC2 experiment (process replicates, trypsin/AspN digest)
Type: cell-based
In short: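 Full-length mouse ADAMTS7 (WT or E373Q mutant, C-terminal 3xFLAG) or luciferase was transduced via adenovirus, 50 MOI, into HCA-SMC (SMC1, SMC2) or HUVEC. SMC1: pooled media, technical triplicates 400 ug; SMC2: process triplicates 300 ug; HUVEC: process triplicates 200 ug, bFGF2 10 ng/ml.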

[1] = SMC2_TAILS HC, log fold change, mEQ over Luc
[2] = SMC2_TAILS HC, log fold change of N-terminal peptide, Ad-mADAMTS7 EQ over Luc
[3] = log fold change, ADAMTS7 EQ over luciferase

Row | logFC.mEQ.over.Luc [1] | logFC.mEQ.over.Luc [2] | logFC.mEQ.over.Luc [3] | Substance
1 | −0.05 | – | – | COL1A2_270 (VGNAGPAGPAGPR; listed as Homo sapiens)
2 | −0.46 | – | – | COL1A2_866 (LLGAPGILGLPGSR; listed as Homo sapiens)
3 | −0.25 | – | – | COL1A2_1028 (LQGLPGIAGHHGDQGAPGSVGPAGPR; listed as Homo sapiens)
4 | – | −0.18 | – | LTBP2_502 (LVENSVETRPPPWLPASPGHSLW; listed as Homo sapiens)
5 | – | −0.92 | – | LTBP3_103 (LTGSGFR; listed as Homo sapiens)
6 | – | −0.02 | – | MAP4_815 (AVASTGPSSR; listed as Homo sapiens)
7 | – | 0.02 | – | MAP4_816 (VASTGPSSR; listed as Homo sapiens)
8 | – | −0.37 | – | MMP1_185 (FQPGPGIGG; listed as Homo sapiens)
9 | – | 0.00 | – | NID2_291 (HSSVPLGR; listed as Homo sapiens)
10 | – | −0.06 | – | NID2_951 (YAYPGAR; listed as Homo sapiens)
11 | – | −0.09 | – | POSTN_727 (IITGPEIKYTR; listed as Homo sapiens)
12 | – | 0.04 | – | SHC2_267 (VAKDPINQRACHIL; listed as Homo sapiens)
13 | – | −0.65 | – | SPOCK1_27 (LAGGAGPNHGNFL; listed as Homo sapiens)
14 | – | 0.05 | −0.10 | SRGN_59 (LLPGESNKIPR; listed as Homo sapiens)
15 | – | 0.06 | – | TNPO2_744 (VQ[Met(O)]VLNNLVEII[code n]RP[code n]TPKTLLE; listed as Homo sapiens)
16 | – | −0.59 | – | TNS1_236 (QEGLAGYQR; listed as Homo sapiens)
17 | – | 0.23 | – | TRGC2_86 (HRCIVRHENNK; listed as Homo sapiens)

The remaining lines, values behind:

Row | Substance | logFC.mEQ.over.Luc [1] | logFC.mEQ.over.Luc [2] | logFC.mEQ.over.Luc [3]
18 | COL1A2_80 (QYDGKGVGLGPGPMGLMGPR; listed as Homo sapiens) | −0.33 | – | –
19 | COL1A2_305 (LTGAKGAAGLPGVAGAPGLPGPR; listed as Homo sapiens) | −0.32 | – | –
20 | COL1A2_630 (VGTAGPSGPSGLPGER; listed as Homo sapiens) | −0.30 | – | –
21 | COL1A2_960 (AGAPGPHGPVGPAGKHGNR; listed as Homo sapiens) | −0.16 | – | –
22 | COL4A2_71 (YNGPPGLQGFPGLQGR; listed as Homo sapiens) | −0.32 | – | –
23 | COL18A1_1505 (LQPPVVQLHDSNPYPR; listed as Homo sapiens) | −0.01 | – | –
24 | LOXL1_218 (AVASAGVIYPYQPR; listed as Homo sapiens) | – | −0.11 | –
25 | LOXL2_45 (HQPQAPANVAKIQLR; listed as Homo sapiens) | – | 0.11 | –
26 | LTBP2_79 (VAGLQPVER; listed as Homo sapiens) | – | −0.09 | –
27 | LTBP2_250 (SAAGEGTLAR; listed as Homo sapiens) | – | −0.21 | –
28 | LTBP2_290 (QHVGLSR; listed as Homo sapiens) | – | −0.10 | –
29 | LTBP3_208 (FLVPLGPGQISA; listed as Homo sapiens) | – | −0.03 | –
30 | MMP1_100 (FVLTEGNPR; listed as Homo sapiens) | – | −0.05 | –
31 | NBEA_1892 (LEKVAPLLR; listed as Homo sapiens) | – | −0.08 | –
32 | NID1_360 (FHQQHPQVI; listed as Homo sapiens) | – | −0.22 | –
33 | PAK4_141 (HSEAGGGSG; listed as Homo sapiens) | – | 0.69 | –
34 | PLIN3_75 (VSGAQPILSKL; listed as Homo sapiens) | – | 0.07 | –
35 | PPP1R18_295 (LSETLTR; listed as Homo sapiens) | – | 0.03 | –
36 | PTPRF_1859 (MRYEGVVDMFQTVKTLR; listed as Homo sapiens) | – | −0.08 | –
37 | QSOX1_210 (HKGVAVR; listed as Homo sapiens) | – | −0.49 | –
38 | SERBP1_56 (QAAAQTNSNAAGKQLR; listed as Homo sapiens) | – | – | −0.09
39 | THBS2_290 (LSENLKR; listed as Homo sapiens) | – | – | 0.59
40 | TTN_5975 (VKEPPVEFTKPL; listed as Homo sapiens) | – | −0.19 | –
41 | VAT1_42 (AASPPLLR; listed as Homo sapiens) | – | 0.27 | –
42 | VIM_314 (QESTEYR; listed as Homo sapiens) | – | −0.22 | 0.03
43 | VIM_333 (LKGTNESLER; listed as Homo sapiens) | – | −0.09 | −0.03
